Drawing on PMC7357845, this text covers Kd for two substances.

In general, Kd refers to the free concentration of one partner at which half of the binding sites on the other are occupied at equilibrium, for simple one-to-one binding.

The target of the experiment is rabbit skeletal muscle G-actin (rabbit) (UniProt P68135). The experiment can be described thus: SPR. On the technique in general: In SPR one partner is held on a chip, and binding of the other changes the refractive index at the surface.

Turning to “His-tagged ZASP-S WT (N21 His-tag) (from UniProt O75112-6 1-283) (natural protein)”, the Kd turned out to be 2 nM.
Next, “untagged ZASP-S WT (from UniProt O75112-6 1-283) (natural protein)”: 62 nM.
